Like-named read-outs stand apart in the source and are kept apart here. Each block holds one binder with its values, some of them ahead of it. Square brackets hold non-standard residues; d marks the D form. Ends that are not written are not given here. Phe(4-NO2) = N[C@@H](Cc1ccc([N+](=O)[O-])cc1)C(=O)O; Phg = N[C@H](C(=O)O)c1ccccc1; Nle = CCCC[C@H](N)C(=O)O; Nva = CCC[C@H](N)C(=O)O; Abu = CC[C@H](N)C(=O)O
Key:
HLA-A*0201 on T2 cells [1] = target: T1, HLA-A*0201 on T2 cells (human); assay: T2 cell stability assay, flow cytometry
T1 construct: whole, on cells; also called HLA-A2

HLA-A*0201 on T2 cells [2] = target: T1, HLA-A*0201 on T2 cells; assay: T2 cell binding assay, flow cytometry
HLA-A*0201 on T2 cells [3] = target: T1, HLA-A*0201 on T2 cells; assay: T2 cell stability assay, flow cytometry; remark: listed apart in the source
HLA-A*0201 on T2 cells [4] = target: T1, HLA-A*0201 on T2 cells; assay: T2 cell binding assay, flow cytometry; remark: listed apart in the source
HLA-A*0201 on T2 cells [5] = target: T1, HLA-A*0201 on T2 cells; assay: T2 cell binding assay, flow cytometry; remark: listed apart in the source
[6] = target: T2, HLA-A*0201 class I monomer on avidin-coated plates (iTopia Epitope Discovery System) (human); assay: iTopia affinity assay (FIG. 19)
T2 construct: Bought kit (Beckman Coulter); also called A0201 restricted MHC Class 1 molecules; MHC monomer
Excerpt: (§1) Avidin-coated microtiter plates containing class I monomer loaded with a so-called placeholder peptide were used to evaluate peptide binding, affinity and off-rate. […] Assay buffers, anti-MHC-FITC mAb and beta2-microglobulin and control peptides were also supplied with the kits. Binding Assay:

[7] = target: T2, HLA-A*0201 class I monomer on …; assay: iTopia assays (FIG. 19)
Excerpt: as §1
This assay measures the ability of individual peptides to bind HLA molecules under standardized optimal binding conditions. Monomer-coated plates were first stripped, releasing the placeholder peptide and leaving only the MHC heavy chain bound to the plate. Test peptides were then introduced under optimal folding conditions, along with the anti-MHC-FITC mAb. […] The anti-MHC-FITC mAb binds preferentially to a refolded MHC complex. Therefore, the fluorescence intensity resulting from each peptide was related to the peptide's ability to form complex with MHC molecule. Each peptide's binding was evaluated relative to the positive control peptide provided in the kit, and the results were expressed “% binding”.

[8] = target: T2, HLA-A*0201 class I monomer on …; assay: iTopia off-rate assay (FIG. 20)
Description: as §1
The plates were then incubated on the allele-specific monomer plates at 37° C. The plates were measured at multiple time points (0, 0.5, 1, 1.5, 2, 4, 6 and 8 hrs) for relative fluorescence intensity. The time required for 50% of the peptide to dissociate from the MHC monomer is defined as the T1/2 value (hrs).

Stability (T1/2) (HLA-A*0201 on T2 cells [1]): 24 h
EC50 (HLA-A*0201 on T2 cells [2]): 4.67 µM
Relative affinity (1/RA) (HLA-A*0201 on T2 cells [2]): 3.1
B1: SSX2 41-49 (K41F, A42V) (peptide)
peptide: FVSEKIFYV

Stability (T1/2) (HLA-A*0201 on T2 cells [3]): 24 h
B2: SSX2 41-49 (K41F, A42V, I46V) (peptide)
peptide: FVSEKVFYV

EC50 (HLA-A*0201 on T2 cells [4]): 3.9 µM
Relative affinity (1/RA) (HLA-A*0201 on T2 cells [4]): 3.8
Stability (T1/2) (HLA-A*0201 on T2 cells [3]): 24 h
B3: SSX2 41-49 (K41F, A42V, Y48T) (peptide)
peptide: FVSEKIFTV

EC50 (HLA-A*0201 on T2 cells [4]): 13.2 µM
Relative affinity (1/RA) (HLA-A*0201 on T2 cells [4]): 1.1
B4: SSX2 41-49 (K41F, A42V, E44D) (peptide)
peptide: FVSDKIFYV

Stability (T1/2) (HLA-A*0201 on T2 cells [1]): > 24 h
EC50 (HLA-A*0201 on T2 cells [2]): 4.82 µM
Relative affinity (1/RA) (HLA-A*0201 on T2 cells [2]): 3
B5: SSX2 41-49 (K41W, A42V) (peptide)
peptide: WVSEKIFYV

Stability (T1/2) (HLA-A*0201 on T2 cells [1]): > 24 h
EC50 (HLA-A*0201 on T2 cells [2]): 25 µM
Relative affinity (1/RA) (HLA-A*0201 on T2 cells [2]): 0.6
B6: SSX2 41-49 (K41Y, A42M) (peptide)
peptide: YMSEKIFYV

EC50 (HLA-A*0201 on T2 cells [4]): 5.67 µM
Relative affinity (1/RA) (HLA-A*0201 on T2 cells [4]): 2.6
Stability (T1/2) (HLA-A*0201 on T2 cells [3]): 24 h
B7: SSX2 41-49 (K41F, A42V, I46L, Y48T) (peptide)
peptide: FVSEKLFTV

EC50 (HLA-A*0201 on T2 cells [4]): 7.8 µM
Relative affinity (1/RA) (HLA-A*0201 on T2 cells [4]): 1.9
Stability (T1/2) (HLA-A*0201 on T2 cells [3]): 24 h
B8: SSX2 41-49 (K41F, A42V, I46L) (peptide)
peptide: FVSEKLFYV

EC50 (HLA-A*0201 on T2 cells [4]): 6.2 µM
Relative affinity (1/RA) (HLA-A*0201 on T2 cells [4]): 2.4
B9: SSX2 41-49 (K41F, A42V, I46L, Y48S, V49A) (peptide)
peptide: FVSEKLFSA

EC50 (HLA-A*0201 on T2 cells [4]): 3.8 µM
Relative affinity (1/RA) (HLA-A*0201 on T2 cells [4]): 3.9
Stability (T1/2) (HLA-A*0201 on T2 cells [3]): 20 h
B10: SSX2 41-49 (K41F, A42V, Y48S) (peptide)
peptide: FVSEKIFSV

Stability (T1/2) (HLA-A*0201 on T2 cells [3]): 12 h
B11: SSX2 41-49 (K41F, A42V, I46L, Y48T, V49A) (peptide)
peptide: FVSEKLFTA

Stability (T1/2) (HLA-A*0201 on T2 cells [1]): > 24 h
EC50 (HLA-A*0201 on T2 cells [2]): 5.37 µM
Relative affinity (1/RA) (HLA-A*0201 on T2 cells [2]): 2.7
B12: SSX2 41-49 (K41F, A42I) (peptide)
peptide: FISEKIFYV

Stability (T1/2) (HLA-A*0201 on T2 cells [1]): > 24 h
EC50 (HLA-A*0201 on T2 cells [2]): 11.8 µM
Relative affinity (1/RA) (HLA-A*0201 on T2 cells [2]): 1.2
B13: SSX2 41-49 (K41Y, A42L) (peptide)
peptide: YLSEKIFYV

Stability (T1/2) (HLA-A*0201 on T2 cells [1]): > 24 h
B14: SSX2 41-49 (K41Y, A42V) (peptide)
peptide: YVSEKIFYV

EC50 (HLA-A*0201 on T2 cells [4]): 40.8 µM
Relative affinity (1/RA) (HLA-A*0201 on T2 cells [4]): 0.4
B15: SSX2 41-49 (K41F, A42V, E44Q) (peptide)
peptide: FVSQKIFYV

Stability (T1/2) (HLA-A*0201 on T2 cells [1]): > 24 h
EC50 (HLA-A*0201 on T2 cells [2]): 4.47 µM
Relative affinity (1/RA) (HLA-A*0201 on T2 cells [2]): 3.3
B16: SSX2 41-49 (K41W, A42L) (peptide)
peptide: WLSEKIFYV

EC50 (HLA-A*0201 on T2 cells [4]): 8.8 µM
Relative affinity (1/RA) (HLA-A*0201 on T2 cells [4]): 1.7
Stability (T1/2) (HLA-A*0201 on T2 cells [3]): 20 h
B17: SSX2 41-49 (K41F, A42V, Y48F) (peptide)
peptide: FVSEKIFFV

Stability (T1/2) (HLA-A*0201 on T2 cells [1]): > 24 h
EC50 (HLA-A*0201 on T2 cells [2]): 5.13 µM
Relative affinity (1/RA) (HLA-A*0201 on T2 cells [2]): 2.9
B18: SSX2 41-49 (K41W, A42M) (peptide)
peptide: WMSEKIFYV

EC50 (HLA-A*0201 on T2 cells [5]): 24.1 µM
Relative affinity (1/RA) (HLA-A*0201 on T2 cells [5]): 0.6
B19: SSX2 41-49 (K41(b-(3-benzothienyl)Ala)) (peptide)
peptide: XASEKIFYV
modifications: β-(3-benzothienyl)-alanine at position 41 (P1)

binding result [6]: binds
B20: PSMA288-297 analog with Nle at PΩ (peptide)
peptide: GLPSIPVHP[Nle]

EC50 (HLA-A*0201 on T2 cells [4]): 13 µM
Relative affinity (1/RA) (HLA-A*0201 on T2 cells [4]): 1.1
B21: SSX2 41-49 (K41F, A42V, E44Nle) (peptide)
peptide: FVS[Nle]KIFYV
notes: also called FVS(Nle)KIFYV

binding result [7]: binds
B22: PSMA288-297 analog with Ala at P1 (peptide)
peptide: ALPSIPVHPI

binding result [7]: binds
B23: PSMA288-297 analog with Thr at PΩ-1 (peptide)
peptide: GLPSIPVHTI

binding result [7]: binds
B24: PSMA288-297 analog with Ala at PΩ-1 (peptide)
peptide: GLPSIPVHAI

binding result [7]: binds
B25: PSMA288-297 analog with Ser at P1 (peptide)
peptide: SLPSIPVHPI

binding result [6]: binds
B26: PSMA288-297 analog with Leu at PΩ (peptide)
peptide: GLPSIPVHPL

binding result [7]: binds
B27: PSMA288-297 analog with Leu at PΩ-1 (peptide)
peptide: GLPSIPVHLI

binding result [6]: binds
B28: PSMA288-297 analog with Ile at P2 (peptide)
peptide: GIPSIPVHPI

binding result [6]: binds
B29: PSMA288-297 analog with Gln at P2 (peptide)
peptide: GQPSIPVHPI

binding result [6]: binds
B30: PSMA288-297 analog with Val at P2 (peptide)
peptide: GVPSIPVHPI

binding result [8]: binds
B31: PSMA288-297 analog with Ala at P1 and Val at PΩ (peptide)
peptide: ALPSIPVHPV

binding result [7]: binds
B32: PSMA288-297 analog with Ser at PΩ-1 (peptide)
peptide: GLPSIPVHSI

binding result [7]: binds
B33: PSMA288-297 analog with Sar at P1 (peptide)
peptide: XLPSIPVHPI
modifications: sarkosine (Sar, N-methylglycine) at P1

binding result [8]: binds
B34: PSMA288-297 analog with Abu at P1 and Val at PΩ (peptide)
peptide: [Abu]LPSIPVHPV

binding result [8]: binds
B35: PSMA288-297 analog with Nva at P2 and Val at PΩ (peptide)
peptide: G[Nva]PSIPVHPV

binding result [6]: binds
B36: PSMA288-297 analog with Abu at P2 (peptide)
peptide: G[Abu]PSIPVHPI

binding result [6]: binds
B37: PSMA288-297 analog with Nva at P2 (peptide)
peptide: G[Nva]PSIPVHPI

EC50 (HLA-A*0201 on T2 cells [5]): 12.8 µM
Relative affinity (1/RA) (HLA-A*0201 on T2 cells [5]): 1.1
B38: SSX2 41-49 (K41(Phe-4N02)) (peptide)
peptide: [Phe(4-NO2)]ASEKIFYV
notes: also called para-nitrophenylalanine analog

EC50 (HLA-A*0201 on T2 cells [4]): 12.8 µM
B39: SSX2 41-49 (K41F, A42V, I46Nle) (peptide)
peptide: FVSEK[Nle]FYV
notes: also called FVSEK(Nle)FYV

EC50 (HLA-A*0201 on T2 cells [4]): 3.8 µM
Relative affinity (1/RA) (HLA-A*0201 on T2 cells [4]): 3.9
Stability (T1/2) (HLA-A*0201 on T2 cells [3]): > 24 h
B40: SSX2 41-49 (K41F, A42V, E44Nva) (peptide)
peptide: FVS[Nva]KIFYV
notes: also called FVS(Nva)KIFYV

EC50 (HLA-A*0201 on T2 cells [4]): 5.85 µM
Relative affinity (1/RA) (HLA-A*0201 on T2 cells [4]): 2.5
Stability (T1/2) (HLA-A*0201 on T2 cells [3]): > 24 h
B41: SSX2 41-49 (K41F, A42V, Y48Phg) (peptide)
peptide: FVSEKIF[Phg]V
notes: also called FVSEKIF(Phg)V

EC50 (HLA-A*0201 on T2 cells [4]): 6.21 µM
Relative affinity (1/RA) (HLA-A*0201 on T2 cells [4]): 2.4
Stability (T1/2) (HLA-A*0201 on T2 cells [3]): > 24 h
B42: SSX2 41-49 (K41F, A42V, I46Nva) (peptide)
peptide: FVSEK[Nva]FYV
notes: also called FVSEK(Nva)FYV

EC50 (HLA-A*0201 on T2 cells [4]): 10.6 µM
Relative affinity (1/RA) (HLA-A*0201 on T2 cells [4]): 1.4
Stability (T1/2) (HLA-A*0201 on T2 cells [3]): 24 h
B43: SSX2 41-49 (K41F, A42V, Y48(Phe-4F)) (peptide)
peptide: FVSEKIFXV
modifications: 4-fluorophenylalanine (Phe(4-F)) at position 48 (P8)
notes: also called FVSEKIF(Phe-4F)V

binding result [8]: binds
B44: PSMA288-297 analog with Ala at P1 and Nva at PΩ (peptide)
peptide: ALPSIPVHP[Nva]

binding result [8]: binds
B45: PSMA288-297 analog with Val at P2 and Nva at PΩ (peptide)
peptide: GVPSIPVHP[Nva]

binding result [7]: binds
B46: PSMA288-297 analog with Abu at P1 (peptide)
peptide: XLPSIPVHPI
modifications: aminobutyric acid (Abu) at P1
notes: also called G288Abu

Source: patent US20070060518A1 (MANNKIND, published 2007)
